What was measured:
G-CSF = assay: Biomarker analysis: serum G-CSF; format: in vivo, human; conditions: adjusted for cytokine baseline differences
Description: (§1) Patient serum samples for biomarker analysis were collected approximately 30 minutes before infusion of kappamab and then at 6, 48, 192, and 1,080 hours after infusion for all patients. Samples were analysed in triplicate and serum levels of 48 human cytokines, chemokines, and growth factors were measured using the Bio-Plex Pro™ Human Cytokine 27-plex and 21-plex assays according to the manufacturer's recommendations (Bio-Rad, Carlsbad, Calif., USA; Cat No M10-0KCAF0Y, mg0-005KMII). Results were verified by repeating the 21-plex assay in triplicate and the samples were randomized across the assay plate. Pre-infusion samples were used as the baseline (t=0) for the analysis.
(§2) Multivariate analysis of the biomarker data was performed using R version 3.1.0 (2014-04-10) software (http://www.R-project.org/). Linear mixed effects modelling was completed using 1me4 (Bates et al. 2015). […]
(§3) To find significance between kappamab dose, time, and cytokine expression levels, we fitted a linear mixed-effects model that modelled cytokine fluorescence expression levels with fixed-effects terms for baseline cytokine fluorescence expression, kappamab dose (with 4 levels: 0.3, 1.0, 3.0, and 10 mg/kg), time (treated as factor with 5 levels), and cytokine with 48 levels, plus their interactions, with a random effect associated with patient (12 levels) and plex (2 levels). […]

CXCL10 = assay: Biomarker analysis: serum CXCL10; format: in vivo, human; conditions: adjusted for cytokine baseline differences
Description: as §1, §2, §3

CCL27 = assay: Biomarker analysis: serum CCL27; format: in vivo, human; conditions: adjusted for cytokine baseline differences
Description: as §1, §2, §3

[1] = Phase 1 safety and tolerability of single IV infusion of kappamab (adverse events, laboratory, ECG)
Description: Patients on maintenance therapy (thalidomide or lenalidomide) were also eligible for inclusion. Patients were excluded from the study if their serum κFLC was greater than 250 mg/L.
The pharmacodynamics of serum κFLC was also assessed. Drug-target modulation of cell signalling pathways was determined by measuring pro-inflammatory and anti-inflammatory cytokines, chemokines, and growth factors in patient serum at specific time intervals.
After providing HREC-approved consent, patients were screened and assessed for study eligibility.
Within each dose cohort only 1 patient per week was to be treated. […] Premedication was not mandated, however, paracetamol (acetaminophen), corticosteroids, and antihistamines were allowed for the treatment of infusion reactions.
Evaluation of safety and tolerability during treatment included vital signs, physical examination, electrocardiogram (ECG), haematology assessments, clinical chemistry, C-reactive protein, β2-microglobulin, immunoglobulin quantification, urinalysis, creatinine clearance, collection of adverse events (AEs), and drug-induced toxicity. All AEs were graded using the Cancer Therapy Evaluation Program Common Terminology Criteria for Adverse Events, version 3.0.

[2] = All treatment-emergent AEs, Grade 1-3, 0.3 mg/kg (N = 3)
[3] = All treatment-emergent AEs, Grade 1-3, 1.0 mg/kg (N = 3)
[4] = All treatment-emergent AEs, Grade 1-3, 3.0 mg/kg (N = 3)
[5] = All treatment-emergent AEs, Grade 1-3, 10 mg/kg (N = 3)
[6] = All treatment-emergent AEs, Grade 1-3, Overall (N = 12)
[7] = All treatment-emergent AEs, Grade 4/5, 0.3 mg/kg (N = 3)
[8] = All treatment-emergent AEs, Grade 4/5, 1.0 mg/kg (N = 3)
[9] = All treatment-emergent AEs, Grade 4/5, 3.0 mg/kg (N = 3)
[10] = All treatment-emergent AEs, Grade 4/5, 10 mg/kg (N = 3)
[11] = All treatment-emergent AEs, Grade 4/5, Overall (N = 12)
[12] = All treatment-emergent AEs, Total, 0.3 mg/kg (N = 3)
[13] = All treatment-emergent AEs, Total, 1.0 mg/kg (N = 3)
[14] = All treatment-emergent AEs, Total, 3.0 mg/kg (N = 3)
[15] = All treatment-emergent AEs, Total, 10 mg/kg (N = 3)
[16] = All treatment-emergent AEs, Total, Overall (N = 12)
[17] = Possibly, probably, or definitely related AEs, Grade 1-3, 0.3 mg/kg (N = 3)
[18] = Possibly, probably, or definitely related AEs, Grade 1-3, 1.0 mg/kg (N = 3)
[19] = Possibly, probably, or definitely related AEs, Grade 1-3, 3.0 mg/kg (N = 3)
[20] = Possibly, probably, or definitely related AEs, Grade 1-3, 10 mg/kg (N = 3)
[21] = Possibly, probably, or definitely related AEs, Grade 1-3, Overall (N = 12)
[22] = Possibly, probably, or definitely related AEs, Grade 4/5, 0.3 mg/kg (N = 3)
[23] = Possibly, probably, or definitely related AEs, Grade 4/5, 1.0 mg/kg (N = 3)
[24] = Possibly, probably, or definitely related AEs, Grade 4/5, 3.0 mg/kg (N = 3)
[25] = Possibly, probably, or definitely related AEs, Grade 4/5, 10 mg/kg (N = 3)
[26] = Possibly, probably, or definitely related AEs, Grade 4/5, Overall (N = 12)
[27] = Possibly, probably, or definitely related AEs, Total, 0.3 mg/kg (N = 3)
[28] = Possibly, probably, or definitely related AEs, Total, 1.0 mg/kg (N = 3)

With “kappamab: humanized form of K121 anti-KMA antibody; VH SEQ ID NO: 1, VL SEQ ID NO: 2” the “Change in serum concentration” value (G-CSF) was “dose-related decreases”, the “Change in serum concentration” value (CXCL10) was “dose-related decreases” and the “Change in serum concentration” value (CCL27) was “dose-related decreases”. The “DLT or discontinuation due to an AE” value ([1]; 0.3-10 mg/kg) was “no patients who experienced a DLT or discontinued the study due to an AE”, the “Patients with nausea (most frequently reported AE)” value ([1]; 2/12 patients) was 17% and the “Patients who experienced study drug-related AEs” value ([1]; 2/12 patients, at the highest dose level (10 mg/kg)) was 17%. For the same substance, the “AEs that were grade 1 or 2” value ([1]; 17/18 events) was 94%, the “Number of patients with AEs (%)” value [1, 2] was 2 (66%) and the “number of AEs” value [1, 2] was 4. The “Number of patients with AEs (%)” value [1, 3] was 3 (100%), the “number of AEs” value [1, 3] was 3 and the “Number of patients with AEs (%)” value [1, 4] was 1 (33%). The “number of AEs” value [1, 4] was 2, the “Number of patients with AEs (%)” value [1, 5] was 2 (67%) and the “number of AEs” value [1, 5] was 9. The “Number of patients with AEs (%)” value [1, 6] was 8 (67%), the “number of AEs” value [1, 6] was 18 and the “Number of patients with AEs (%)” value [1, 7] was 0 (0%). The “number of AEs” value [1, 7] was 0, the “Number of patients with AEs (%)” value [1, 8] was 0 (0%) and the “number of AEs” value [1, 8] was 0. For the same substance, the “Number of patients with AEs (%)” value [1, 9] was 0 (0%), the “number of AEs” value [1, 9] was 0 and the “Number of patients with AEs (%)” value [1, 10] was 0 (0%). For the same substance, the “number of AEs” value [1, 10] was 0, the “Number of patients with AEs (%)” value [1, 11] was 0 (0%) and the “number of AEs” value [1, 11] was 0. For the same substance, the “Number of patients with AEs (%)” value [1, 12] was 2 (67%), the “number of AEs” value [1, 12] was 4 and the “Number of patients with AEs (%)” value [1, 13] was 3 (100%). The “number of AEs” value [1, 13] was 3, the “Number of patients with AEs (%)” value [1, 14] was 1 (33%) and the “number of AEs” value [1, 14] was 2. The “Number of patients with AEs (%)” value [1, 15] was 2 (67%), the “number of AEs” value [1, 15] was 9 and the “Number of patients with AEs (%)” value [1, 16] was 8 (67%). For the same substance, the “number of AEs” value [1, 16] was 18, the “Patients who experienced treatment-emergent AEs” value ([1]; Eight of the 12 patients, all doses) was 67% and the “Number of patients with AEs (%)” value [1, 17] was 0 (0%). The “number of AEs” value [1, 17] was 0, the “Number of patients with AEs (%)” value [1, 18] was 0 (0%) and the “number of AEs” value [1, 18] was 0. For the same substance, the “Number of patients with AEs (%)” value [1, 19] was 0 (0%), the “number of AEs” value [1, 19] was 0 and the “Number of patients with AEs (%)” value [1, 20] was 2 (67%). The “number of AEs” value [1, 20] was 6, the “Number of patients with AEs (%)” value [1, 21] was 2 (17%) and the “number of AEs” value [1, 21] was 6. The “Number of patients with AEs (%)” value [1, 22] was 0 (0%), the “number of AEs” value [1, 22] was 0 and the “Number of patients with AEs (%)” value [1, 23] was 0 (0%). For the same substance, the “number of AEs” value [1, 23] was 0, the “Number of patients with AEs (%)” value [1, 24] was 0 (0%) and the “number of AEs” value [1, 24] was 0. The “Number of patients with AEs (%)” value [1, 25] was 0 (0%), the “number of AEs” value [1, 25] was 0 and the “Number of patients with AEs (%)” value [1, 26] was 0 (0%). The “number of AEs” value [1, 26] was 0, the “Number of patients with AEs (%)” value [1, 27] was 0 (0%) and the “number of AEs” value [1, 27] was 0. The “Number of patients with AEs (%)” value [1, 28] was 0 (0%) and the “number of AEs” value [1, 28] was 0.
